Kd data for one substance are collected here from paper PMC2660596.

pKd: −log10 of the molar value.

The target of the assay is Bacillus thuringiensis Cry11Ba toxin (Bacillus thuringiensis) (UniProt Q45730). Nature of the assay: ELISA. In general terms: ELISA stands for enzyme-linked immunosorbent assay.

As usually defined, the pKd is −log10 of the Kd, conventionally taken in molar units. Substance “APN2t, truncated 70-kDa AgAPN2 peptide (residues 228 to 843) (domain or fragment)” had a pKd of 8.19.
